We go through 25 molecules from patent US20240317859A1 (FOUNDATION FOR BIOMEDICAL RESEARCH AND INNOVATION AT KOBE, published 2024).

For experiment [1], the target named is T1, human PD-1 (wild-type), expressed on cells (human, UniProt Q15116 25-288). Put plainly: cell-based or functional assay.
Target sequence in this assay (Q15116 25-288 limits assumed): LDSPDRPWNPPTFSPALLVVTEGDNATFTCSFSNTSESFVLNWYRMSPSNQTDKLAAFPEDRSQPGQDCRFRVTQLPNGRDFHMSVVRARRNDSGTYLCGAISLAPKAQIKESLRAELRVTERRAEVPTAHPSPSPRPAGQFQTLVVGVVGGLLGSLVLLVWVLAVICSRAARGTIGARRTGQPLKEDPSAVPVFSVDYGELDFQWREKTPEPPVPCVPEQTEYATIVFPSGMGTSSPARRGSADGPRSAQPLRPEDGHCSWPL
The target of experiment [2] is Human PD-1/PDCD1 Protein (PD-1) (human, UniProt Q15116 25-167, limits assumed). Put plainly: SPR, Biacore 8K; PD-1 captured by anti-His antibody, antibody in flow. The method, then: The binding affinity of each antibody to human PD-1 was measured with Biacore 8K (Cytiva). Briefly, anti-His Tag antibody was immobilized by amine coupling using Amine Coupling Kit and His Capture Kit, onto 8 channels of a sensor chip (provided with 16 flow cells; one channel consisting of two flow cells) which had carboxymethyl dextran immobilized on a gold film. The immobilization was performed by feeding an activation solution (NHS and EDC mixed in equal amounts) at a flow rate of 10 μl/min for 7 minutes, an immobilization solution at a flow rate of 5 μl/min for 7 minutes, and 1 M ethanolamine hydrochloride-NaOH (pH 8.5) at a flow rate of 10 μl/min for 7 minutes. The buffer used at the time of immobilization was 1×HBS-EP+ Buffer. After the immobilization and before applying a sample, Human PD-1/PDCD1 Protein (PD-1) adjusted to 1 μg/ml with 1×HBS-EP+ Buffer was fed to one of the two flow cells of each channel in an amount of 20 μl at a flow rate of 10 μl/min to thereby capture PD-1 on the sensor chip. As regards the other flow cell, 1×HBS-EP+ Buffer was fed in the same manner to prepare a control flow cell. Each antibody was adjusted to 16 nM with 1×HBS-EP+ Buffer, and then subjected to 2-fold 7-step serial dilution using 1×HBS-EP+ Buffer. The resultant sample solution (30 μl) was fed to each flow cell at a flow rate of 10 μl/min and the response was measured. After subtracting the response of control flow cell from the response of the flow cell which was allowed to capture the ligand, KD value was calculated by curve fitting using Biacore 8K Evaluation Software.

Experiment [3] addresses T1, human PD-1 (wild-type), expressed on …. Put plainly: cell-based or functional assay. This is another data set of the same source.

Residue numbers refer to the chain shown, from its start. In names and notes the source's numbering stands. Where two headings read alike, the source gives them in different places.

B1: chimeric HM242-IgG1-K322A (antibody)
heavy: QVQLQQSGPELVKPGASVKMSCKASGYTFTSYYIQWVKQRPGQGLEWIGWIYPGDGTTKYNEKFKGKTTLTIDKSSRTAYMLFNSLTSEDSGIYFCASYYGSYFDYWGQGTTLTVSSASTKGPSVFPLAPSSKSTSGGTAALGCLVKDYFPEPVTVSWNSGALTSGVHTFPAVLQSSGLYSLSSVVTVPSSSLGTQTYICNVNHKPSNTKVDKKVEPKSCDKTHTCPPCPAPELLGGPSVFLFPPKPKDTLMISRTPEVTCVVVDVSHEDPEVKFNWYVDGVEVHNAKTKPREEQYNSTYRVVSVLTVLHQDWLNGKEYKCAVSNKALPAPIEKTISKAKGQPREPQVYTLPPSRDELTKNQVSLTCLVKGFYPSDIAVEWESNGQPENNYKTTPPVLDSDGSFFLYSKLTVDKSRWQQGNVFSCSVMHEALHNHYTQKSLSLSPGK
light: DIQMTQTTSSLSASLGDRVTISCRASQDISNYLNWYQQKPDGTVTLLIYYTSKLHSGVPSRFSGSGSGTDYSLTITNLEQKDFATYFCQQSSTLPFTFGGGTKLEIKRTVAAPSVFIFPPSDEQLKSGTASVVCLLNNFYPREAKVQWKVDNALQSGNSQESVTEQDSKDSTYSLSSTLTLSKADYEKHKVYACEVTHQGLSSPVTKSFNRGEC
notes: Mouse Fab region with the Fc region of human IgG1-K322A
Take B1: in experiment [1], the “Cell-cell contact assay” value was 13.7 ng/mL. For the same molecule, in experiment [2], the Kd (in general, the equilibrium constant for the complex coming apart) was below 0.051 nM.

B2: HM242-C2 (antibody, human IgG1, V domains shown)
VH: QVQLVQSGPEVKKPGASVKVVCKASGYTFTSYYIQWVKQRPGQGLEWIGWIYPGDGTTKYNEKFKGRVTMTIDKSTRTAYMELRSLRSDDTAVYYCASYYGSYFDYWGQGTLVTVSS
VL: DIQMTQSPSSLSASVGDRVTITCRASQDISNYLNWYQQKPDGTVTLLIYYTSKLHSGVPSRFSGSGSGTDYTLTISSLQPEDFATYYCQQSSTLPFTFGQGTKLEIK
notes: also called humanized HM242, VH ver.C / VL ver.2
B2: the “Cell-cell contact assay” value in experiment [1] came out at 18.1 ng/mL. Further, in experiment [2], the dissociation constant Kd was below 0.0211 nM.

B3: humanized HM268-K8-IgG1-K322A (antibody, V domains shown)
VH: B2 VH with A24T, V37L, P53F, G56A, T57S, I72A, R77S, L112T
VL: DIQMTQSPSSLSASVGDRVTITCRASQDISNYLNWYQQKPDGTVKLLIYSTSRLHSGVPSRFSGSGSGTDYTLTISSLQPEDFATYYCQQGSTLPFTFGQGTKLEIKR
B3: the “Cell-cell contact assay” value in experiment [3] is 39.4 ng/mL. This molecule also came in with a dissociation constant (Kd) in experiment [2] below 0.00306 nM.

B4: HM242-B1 (antibody, human IgG1, V domains shown)
VH: B2 VH with K38R, R40V, I48M, R67K, V68T, M70L
VL: B2 VL with S7T, P8T, Q79E, P80Q, E81K
notes: also called humanized HM242, VH ver.B / VL ver.1
As to B4, the “Cell-cell contact assay” value in experiment [1] worked out at 7.15 ng/mL. In experiment [2], the Kd was below 0.0448 nM.

B5: HM242-B2 (antibody, human IgG1, V domains shown)
VH: B2 VH with K38R, R40V, I48M, R67K, V68T, M70L
VL: B2 VL
notes: also called humanized HM242, VH ver.B / VL ver.2
Take B5: the “Cell-cell contact assay” value in experiment [1] was 8.83 ng/mL. In addition, the Kd in experiment [2] was below 0.0315 nM.

B6: humanized HM242-C3-IgG1-K322A (antibody, V domains shown)
VH: B2 VH
VL: B3 VL with D41G, G42K, T43A, V44P, S50Y, R53K, G91S
For B6, the “Cell-cell contact assay” value in experiment [1] is 23.7 ng/mL. This molecule came in with a Kd in experiment [2] below 0.0186 nM.

B7: HM242-D1 (antibody, human IgG1, V domains shown)
VH: B2 VH with K38R, R40V, I48M, K74T, R77S
VL: B2 VL with S7T, P8T, Q79E, P80Q, E81K
notes: also called humanized HM242, VH ver.D / VL ver.1
Take B7: the “Cell-cell contact assay” value in experiment [1] was 24.8 ng/mL. The Kd in experiment [2] worked out at 0.103 nM.

B8: HM268-M8 (antibody, human IgG1, V domains shown)
VH: B2 VH with K38R, R40V, I48M, P53F, G56A, T57S, I72A, K74T, R77S, L112T
VL: B2 VL with T45K, Y50S, K53R, S91G
notes: also called humanized HM268, VH ver.M / VL ver.8
Regarding B8, in experiment [3], the “Cell-cell contact assay” value is 75.8 ng/mL. Also, the Kd in experiment [2] was determined as 0.00359 nM.

B9: HM242-A2 (antibody, human IgG1, V domains shown)
VH: B2 VH with V11L, K12V, R67K, V68T, M70L
VL: B2 VL
notes: also called humanized HM242, VH ver.A / VL ver.2
On to B9, for which, in experiment [1], the “Cell-cell contact assay” value turned out to be 16.7 ng/mL. This molecule also returned a Kd in experiment [2] below 0.0408 nM.

B10: HM242-A3 (antibody, human IgG1, V domains shown)
VH: B2 VH with V11L, K12V, R67K, V68T, M70L
VL: B2 VL with D41G, G42K, T43A, V44P, T45K
notes: also called humanized HM242, VH ver.A / VL ver.3
Consider B10, for which, in experiment [1], the “Cell-cell contact assay” value worked out at 18.8 ng/mL. The molecule further registered a Kd in experiment [2] below 0.0217 nM.

B11: HM242-A1 (antibody, human IgG1, V domains shown)
VH: B2 VH with V11L, K12V, R67K, V68T, M70L
VL: B2 VL with S7T, P8T, Q79E, P80Q, E81K
notes: also called humanized HM242, VH ver.A / VL ver.1
Take B11: the “Cell-cell contact assay” value in experiment [1] is 13.1 ng/mL. In experiment [2], this molecule yielded a dissociation constant Kd below 0.0356 nM.

B12: HM242-B3 (antibody, human IgG1, V domains shown)
VH: B2 VH with K38R, R40V, I48M, R67K, V68T, M70L
VL: B2 VL with D41G, G42K, T43A, V44P, T45K
notes: also called humanized HM242, VH ver.B / VL ver.3
With B12, the “Cell-cell contact assay” value in experiment [1] was determined as 20.8 ng/mL. The molecule also returned an equilibrium dissociation constant (Kd) in experiment [2] below 0.0307 nM.

B13: HM242-D2 (antibody, human IgG1, V domains shown)
VH: B2 VH with K38R, R40V, I48M, K74T, R77S
VL: B2 VL
notes: also called humanized HM242, VH ver.D / VL ver.2
For B13, the “Cell-cell contact assay” value in experiment [1] is 33.3 ng/mL. This molecule also gave a Kd in experiment [2] below 0.0603 nM.

B14: HM268-M9 (antibody, human IgG1, V domains shown)
VH: B2 VH with K38R, R40V, I48M, P53F, G56A, T57S, I72A, K74T, R77S, L112T
VL: B2 VL with D41G, G42K, T43A, V44P, T45K, Y50S, K53R, S91G
notes: also called humanized HM268, VH ver.M / VL ver.9
Turning to B14, the “Cell-cell contact assay” value in experiment [3] turned out to be 1430 ng/mL. Binding in experiment [2] was put at a Kd of 0.0614 nM.

B15: HM268-M7 (antibody, human IgG1, V domains shown)
VH: B2 VH with K38R, R40V, I48M, P53F, G56A, T57S, I72A, K74T, R77S, L112T
VL: B2 VL with S7N, P8T, T45K, Y50S, K53R, Q79E, P80Q, S91G
notes: also called humanized HM268, VH ver.M / VL ver.7
For B15, the “Cell-cell contact assay” value in experiment [3] was 149 ng/mL. The molecule also showed a dissociation constant (Kd) in experiment [2] of 0.012 nM.

B16: HM268-L7 (antibody, human IgG1, V domains shown)
VH: QVQLVQSGPEVKKPGASVKVVCKTSGYTFTSYYIQWVRQVPGQGLEWMGWIYFGDASTKYNEKFKGRVTMTADTSTSTAYMELRSLRSDDTAVYYCASYYGSYFDYWGQGTTVTVSS
VL: B2 VL with S7N, P8T, T45K, Y50S, K53R, Q79E, P80Q, S91G
notes: also called humanized HM268, VH ver.L / VL ver.7
Turning to B16, the “Cell-cell contact assay” value in experiment [3] worked out at 103 ng/mL. In experiment [2], this molecule yielded an equilibrium dissociation constant (Kd) of 0.00216 nM.

B17: HM268-K9 (antibody, human IgG1, V domains shown)
VH: B16 VH with V37L, R38K, V40R, M48I, T74K
VL: B2 VL with D41G, G42K, T43A, V44P, T45K, Y50S, K53R, S91G
notes: also called humanized HM268, VH ver.K / VL ver.9
As to B17, in experiment [3], the “Cell-cell contact assay” value came to 150 ng/mL. Besides, in experiment [2], the affinity, expressed as Kd, was 0.151 nM.

B18: HM268-J9 (antibody, human IgG1, V domains shown)
VH: B16 VH with R67K, V68T, M70L, T74K
VL: B2 VL with D41G, G42K, T43A, V44P, T45K, Y50S, K53R, S91G
notes: also called humanized HM268, VH ver.J / VL ver.9
On to B18, for which the “Cell-cell contact assay” value in experiment [3] was 301 ng/mL. Also, in experiment [2], the Kd amounted to 0.0252 nM.

B19: humanized HM242-D3-IgG1-K322A (antibody, V domains shown)
VH: B2 VH with K38R, R40V, I48M, K74T, R77S
VL: B3 VL with D41G, G42K, T43A, V44P, S50Y, R53K, G91S
As for B19, the “Cell-cell contact assay” value in experiment [1] is 31.5 ng/mL. In addition, the dissociation constant (Kd) in experiment [2] was below 0.0492 nM.

B20: HM268-L9 (antibody, human IgG1, V domains shown)
VH: B16 VH
VL: B2 VL with D41G, G42K, T43A, V44P, T45K, Y50S, K53R, S91G
notes: also called humanized HM268, VH ver.L / VL ver.9
In the case of B20, the “Cell-cell contact assay” value in experiment [3] came out at 87.4 ng/mL. In experiment [2], this molecule displayed a Kd of 0.0111 nM.

B21: HM268-K7 (antibody, human IgG1, V domains shown)
VH: B16 VH with V37L, R38K, V40R, M48I, T74K
VL: B2 VL with S7N, P8T, T45K, Y50S, K53R, Q79E, P80Q, S91G
notes: also called humanized HM268, VH ver.K / VL ver.7
As for B21, the “Cell-cell contact assay” value in experiment [3] is 43.7 ng/mL. Besides, in experiment [2], the Kd is 0.00691 nM.

B22: HM268-L8 (antibody, human IgG1, V domains shown)
VH: B16 VH
VL: B2 VL with T45K, Y50S, K53R, S91G
notes: also called humanized HM268, VH ver.L / VL ver.8
For the molecule B22, the “Cell-cell contact assay” value in experiment [3] is 98.2 ng/mL. The Kd in experiment [2] is 0.00129 nM.

B23: HM268-J7 (antibody, human IgG1, V domains shown)
VH: B16 VH with R67K, V68T, M70L, T74K
VL: B2 VL with S7N, P8T, T45K, Y50S, K53R, Q79E, P80Q, S91G
notes: also called humanized HM268, VH ver.J / VL ver.7
Turning to B23, the “Cell-cell contact assay” value in experiment [3] turned out to be 70.9 ng/mL. The molecule also displayed a Kd in experiment [2] of 0.00482 nM.

B24: HM268-J8 (antibody, human IgG1, V domains shown)
VH: B16 VH with R67K, V68T, M70L, T74K
VL: B2 VL with T45K, Y50S, K53R, S91G
notes: also called humanized HM268, VH ver.J / VL ver.8
Take B24: the “Cell-cell contact assay” value in experiment [3] was determined as 63.1 ng/mL. Further, the Kd in experiment [2] was below 0.00284 nM.

B25: chimeric HM268-IgG1-K322A (antibody)
heavy: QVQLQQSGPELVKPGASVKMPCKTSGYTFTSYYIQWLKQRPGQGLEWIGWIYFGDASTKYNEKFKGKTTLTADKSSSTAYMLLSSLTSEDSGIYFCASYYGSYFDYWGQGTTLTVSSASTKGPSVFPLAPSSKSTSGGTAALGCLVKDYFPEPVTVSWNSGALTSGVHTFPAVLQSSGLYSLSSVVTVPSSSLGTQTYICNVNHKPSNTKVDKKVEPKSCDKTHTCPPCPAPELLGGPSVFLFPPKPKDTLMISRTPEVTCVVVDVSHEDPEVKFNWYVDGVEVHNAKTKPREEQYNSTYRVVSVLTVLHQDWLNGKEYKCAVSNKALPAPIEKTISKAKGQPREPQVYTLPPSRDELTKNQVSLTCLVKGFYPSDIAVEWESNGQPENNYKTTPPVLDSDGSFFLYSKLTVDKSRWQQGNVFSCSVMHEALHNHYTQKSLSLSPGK
light: NIQMTQNTSSLSATLGVRVTISCRASQDISNYLNWYQQKPDGTVKLLIYSTSRLHSGIPSRFSGSGSGTDYSLTISNLEQEDIATYFCQQGSTLPFTFGGGTKLEIKRTVAAPSVFIFPPSDEQLKSGTASVVCLLNNFYPREAKVQWKVDNALQSGNSQESVTEQDSKDSTYSLSSTLTLSKADYEKHKVYACEVTHQGLSSPVTKSFNRGEC
notes: as for B1
B25: in experiment [3], the “Cell-cell contact assay” value worked out at 46.5 ng/mL. Besides, in experiment [2], the Kd is below 0.00169 nM.
